Substitutions are numbered along the chain they refer to.
B1: SIGLEC-8-46 (antibody, human IgG1, kappa, V domains shown)
VH: EVQLLESGGGLVQPGGSLRLSCAASGLTFSRYAMSWVRQAPGKGLEWVSTVSGSGVSTYYADSVKGRFTISRDNSKNTLYLQMNSLRAEDTAVYYCARARGGSSRYYYGMDVWGQGTLVTVSS
VL: DIQMTQSPSSLSASVGDRVTITCRASQTIDKYLNWYQQKPGKAPKLLIYGASRLQNGVPSRFSGSGSGTDFTLTISSLQPEDFATYYCQQSYTTPTFGGGTKVEIKR
notes: tested as expressed and purified mAb
B2: SIGLEC-8-29 (antibody, human IgG1, kappa, V domains shown)
VH: EVQLLESGGGLVQPGGSLRLSCAASGFTFSRHAMTWVRQAPGKGLEWVSAISSSGDNTYYVDSVKGRYTISRDNSKNTLYLQMNSLRAEDTAVYYCARIHRNGHAFDIWGQGTLVTVSS
VL: DIQMTQSPSSLSASVGDRVTITCRASQSIHTYLNWYQQKPGKAPKLLIYGASTLRSGVPSRFSGSGSGTDFTLTISSLQPEDFATYYCQQSYSTPLLTFGGGTKVEIKR
notes: as for B1
B3: SIGLEC-8-13 (antibody, human IgG1, kappa, V domains shown)
VH: EVQLLESGGGLVQPGGSLRLSCAASGFTFSSYDMNWVRQAPGKGLEWVSAISGSGVGTYYADSVKGRFTISRDNSKNTLYLQMNSLRAEDTAVYYCSKDVRWSPGGMDVWGQGTLVTVSS
VL: DIQMTQSPSSLSASVGDRVTITCRASQSVSIYLNWYQQKPGKAPKLLIYATSNLHSGVPSRFSGSGSGTDFTLTISSLQPEDFATYYCQQSHSTPYTFGGGTKVEIKR
notes: as for B1
B4: SIGLEC-8-47 (antibody, human IgG1, kappa, V domains shown)
VH: EVQLLESGGGLVQPGGSLRLSCAASGFTFSTHAMSWVRQAPGKGLEWVSTISGSGDITYYADSVKGRFTISRDNSKNTLYLQMNSLRAEDTAVYYCARQSRGGSLGMDVWGQGTLVTVSS
VL: B3 VL with S28T, V29I, I31R, T51A, H55Y, H92F, S93A
notes: as for B1
B5: SIGLEC-8-23 (antibody, human IgG1, kappa, V domains shown)
VH: EVQLLESGGGLVQPGGSLRLSCAASGLTFSSYAMSWVRQAPGKGLEWVSAISGSGVGTYYADSVKGRFTISRDNSKNTLYLQMNSLRAEDTAVYYCAKHTSSSWYPLDYWGQGTLVTVSS
VL: B3 VL with A25S, V29I, S30T, I31T, T51A, H55Y, S93T, Y96L
notes: as for B1
B6: SIGLEC-8-38 (antibody, human IgG1, kappa, V domains shown)
VH: EVQLLESGGGLVQPGGSLRLSCAASGFTFSPYAMSWVRQAPGKGLEWVSGIGGSGGSTYYADSVKGRFTISRDNSKNTLYLQMNSLRAEDTAVYYCARDYGGYYFDYWGQGTLVTVSS
VL: B3 VL with S28Y, V29I, I31N, N53T, H55E, S91G, H92Y, T94V, Y96W
notes: as for B1
B7: SIGLEC-8-50 (antibody, human IgG1, kappa, V domains shown)
VH: EVQLLESGGGLVQPGGSLRLSCAASGFTLSNYAMTWVRQAPGKGLEWVSTVSGSGASTYYADSVKGRFTISRDNSKNTLYLQMNSLRAEDTAVYYCAREDSGKYLSLDYWGQGTLVTVSS
VL: DIQMTQSPSSLSASVGDRVTITCRASQSIGSYLNWYQQKPGKAPKLLIYSASSLQTGVPSRFSGSGSGTDFTLTISSLQPEDFATYYCQQTYNTPITFGGGTKVEIKR
notes: as for B1
B8: SIGLEC-8-25 (antibody, human IgG1, kappa, V domains shown)
VH: EVQLLESGGGLVQPGGSLRLSCAASGFTFSKYAMDWVRQAPGKGLEWVSDISGSGGTTYYADSVKGRFTISRDNSKNTLYLQMNSLRAEDTAVYYCVRAGLVGYDFDIWGQGTLVTVSS
VL: B7 VL with Q27E, G30S, S50G, S53I, T56G, T91S, N93S, T94F
notes: as for B1
B9: SIGLEC-8-9 (antibody, human IgG1, kappa, V domains shown)
VH: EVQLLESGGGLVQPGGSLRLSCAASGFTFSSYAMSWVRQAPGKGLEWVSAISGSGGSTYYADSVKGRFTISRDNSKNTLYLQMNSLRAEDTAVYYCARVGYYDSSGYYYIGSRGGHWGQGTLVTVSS
VL: B7 VL with A25T, S28T, G30S, S31T, S50D, S53D, T56S, T91N, N93I, I96N
notes: as for B1
B10: SIGLEC-8-59 (antibody, human IgG1, kappa, V domains shown)
VH: EVQLLESGGGLVQPGGSLRLSCAASGFTFTSYAVSWVRQAPGKGLEWVSSISGSGGSAYYADSVKGRFTISRDNSKNTLYLQMNSLRAEDTAVYYCARDTVGYGMDVWGQGTLVTVSS
VL: B7 VL with S28T, G30S, S31G, N34S, S53R, Q55H, T56S, T91G, N93S, I96L
notes: as for B1
B11: SIGLEC-8-39 (antibody, human IgG1, kappa, V domains shown)
VH: EVQLLESGGGLVQPGGSLRLSCAASGFTFSRYGMSWVRQAPGKGLEWVSATSGSGGTTYYADSVKGRFTISRDNSKNTLYLQMNSLRAEDTAVYYCARVGGSGWYPNDYWGQGTLVTVSS
VL: B7 VL with I29V, G30S, S31R, Y32F, S50G, S53T, T91S, N93T, I96H
notes: as for B1
B12: SIGLEC-8-55 (antibody, human IgG1, kappa, V domains shown)
VH: EVQLLESGGGLVQPGGSLRLSCAASGFTFDDYAMSWVRQAPGKGLEWVSYISGSGGSTYYADSVKGRFTISRDNSKNTLYLQMNSLRAEDTAVYYCAKYRRYDSGLGGFDYWGQGTLVTVSS
VL: B7 VL with Q27R, G30D, S31T, S50D, S53T, T56G, T91S, N93V, I96P
notes: tested as expressed and purified mAb; also called SIGLEC-55
B13: SIGLEC-8-49 (antibody, human IgG1, kappa, V domains shown)
VH: EVQLLESGGGLVQPGGSLRLSCAASGFTFSTYAMHWVRQAPGKGLEWVSTISASGGSTYYADSVKGRFTISRDNSKNTLYLQMNSLRAEDTAVYYCAKSGGADYYYYGMDVWGQGTLVTVSS
VL: B7 VL with S31Y, S50G, A51T, T56S, T91S, N93S, I96L, T97N
notes: as for B1
B14: SIGLEC-8-16 (antibody, human IgG1, kappa, V domains shown)
VH: B11 VH with R31D, S49L, T51I, G56A, N84D, V99E, G103T, W104Y, P106S, N107L
VL: B3 VL with A25T, V29I, S30G, I31S, H92Y, S93K
notes: as for B1
B15: SIGLEC-8-28 (antibody, human IgG1, kappa, V domains shown)
VH: EVQLLESGGGLVQPGGSLRLSCAASGSPFSNYAMSWVRQAPGKGLEWVSSISGGGASTYYADSVKGRFTISRDNSKNTLYLQMNSLRAEDTAVYYCAREKDNSWFGMDVWGQGTLVTVSS
VL: B7 VL with G30D, S31R, S50G, S53T, N93S
notes: as for B1
B16: SIGLEC-8-14 (antibody, human IgG1, kappa, V domains shown)
VH: EVQLLESGGGLVQPGGSLRLSCAASGFSFSNHAMTWVRQAPGKGLEWVSGISGSSGSTYYADSVKGRFTISRDNSKNTLYLQMNSLRAEDTAVYYCAREGRVAAYFDSWGQGTLVTVSS
VL: B7 VL with S28G, G30S, S31G, S50G, S53R, T56N, T91S, N93T
notes: as for B1
B17: SIGLEC-8-2 (antibody, human IgG1, kappa, V domains shown)
VH: B4 VH with T31K, T50G, D56A, I57R
VL: B7 VL with S28R, G30S, S50G, S53I, S76N, Q90E, T91S, N93S, I96F
notes: as for B1
B18: SIGLEC-8-3 (antibody, human IgG1, kappa, V domains shown)
VH: EVQLLESGGGLVQPGGSLRLSCAASGFTFSTYDMTWVRQAPGKGLEWVSSIGGSGRSTYYADSVKGRFTISRDNSKNTLYLQMNSLRAEDTAVYYCARGSASAWFAFDYWGQGTLVTVSS
VL: B7 VL with G30A, S31R, S50G, S53D, T56S, T91S, N93R, P95S, I96Y
notes: as for B1
B19: SIGLEC-8-6 (antibody, human IgG1, kappa, V domains shown)
VH: B7 VH with T28S, L29F, N31S, A33G, T35S, V51I, A56G, S57G, D100E, Y109H
VL: B7 VL with S28T, G30R, S50A, Q55H, T91S, N93T
notes: as for B1
B20: SIGLEC-8-33 (antibody, human IgG1, kappa, V domains shown)
VH: EVQLLESGGGLVQPGGSLRLSCAASGFAFSDYAMSWVRQAPGKGLEWVSAITGSGDYTYYADSVKGRFTISRDNSKNTLYLQMNSLRAEDTAVYYCARDTGGMDVWGQGTLVTVSS
VL: DIQMTQSTSSLSASVGDRVTITCRASQSIHSYLNWYQQKPGKAPILIYAASSLERGVPSRFSGSGSGTDFTLTISSLQPEDFATYYCQQSYITPYSFGGGTKVEIKR
notes: as for B1
B21: SIGLEC-8-15 (antibody, human IgG1, kappa, V domains shown)
VH: EVQLLESGGGLVQPGGSLRLSCAASGFTFSTYTMNWVRQAPGKGLEWVSVISGSGDDTYYADSVKGRFTISRDNSKNTLYLQMNSLRAEDTAVYYCTRAGEQHHYYGMDVWGQGTLVTVSS
VL: B7 VL with S28T, G30S, S31T, Y32S, S50G, S53T, T56R, Q89R, T91S, N93S
notes: as for B1
B22: SIGLEC-8-51 (antibody, human IgG1, kappa, V domains shown)
VH: B11 VH with S30P, S49T, V99D, G100E, G101S, N107K
VL: B3 VL with I31R, Y32F, A50G, T51A, H55E, S56G, H92Y, S93T, Y96H
notes: as for B1

target: T1, SIGLEC-8 transiently expressed on cells (UniProt Q9NYZ4 17-499, limits assumed); test: cell binding titration, transient SIGLEC-8 line
T1 construct: whole, on cells; Two cassettes are described (P2A mVenus and direct mVenus fusion); also called the transient line; pTT5-SIGLEC-8 P2A mVenus
T1 sequence (Q9NYZ4 17-499 limits assumed): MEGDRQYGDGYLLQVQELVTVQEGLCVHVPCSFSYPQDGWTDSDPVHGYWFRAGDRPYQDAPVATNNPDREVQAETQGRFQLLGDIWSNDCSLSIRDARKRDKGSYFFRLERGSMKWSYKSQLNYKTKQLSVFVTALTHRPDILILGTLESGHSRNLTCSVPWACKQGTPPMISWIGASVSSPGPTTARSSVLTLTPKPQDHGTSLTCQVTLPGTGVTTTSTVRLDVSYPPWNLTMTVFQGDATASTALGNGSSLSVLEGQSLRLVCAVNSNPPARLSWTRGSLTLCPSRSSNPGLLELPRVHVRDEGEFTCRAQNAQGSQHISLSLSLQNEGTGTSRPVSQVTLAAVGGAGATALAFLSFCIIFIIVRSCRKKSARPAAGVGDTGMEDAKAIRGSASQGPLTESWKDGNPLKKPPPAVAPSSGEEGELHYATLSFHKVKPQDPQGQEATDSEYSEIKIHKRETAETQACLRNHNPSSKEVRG

| EC50 | Binder |
| --- | --- |
| 32.8 nM | B1 |
| 355 nM | B2 |
| 50.7 nM | B3 |
| 1.88 nM | B4 |
| 0.855 nM | B5 |
| 10.6 nM | B6 |
| 1.15 nM | B7 |
| 7.63 nM | B8 |
| 1590 nM | B9 |
| 0.939 nM | B10 |
| 4.47 nM | B11 |
| 3.01 nM | B12 |
| 1.4 nM | B13 |
| 2.87 nM | B14 |
| 1.02 nM | B15 |
| 20.8 nM | B16 |
| 8.28 nM | B17 |
| 6.46 nM | B18 |
| 2.43 nM | B19 |
| 133 nM | B20 |

target: Sialic acid-binding immunoglobulin-like lectin 8 (SIGLEC-8), antigen of the Carterra SPR studies (UniProt Q9NYZ4 17-363, limits assumed); test: Carterra SPR
In short: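 On a Carterra instrument, surface plasmon resonance was used to measure how antibodies bind SIGLEC-8, with rate constants and dissociation constants as read-outs. The antibodies were taken from synthetic libraries by bead-based panning and clonal ELISA screening, then expressed and purified.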

Chain of Sialic acid-binding immunoglobulin-like lectin 8 (SIGLEC-8), antigen of the Carterra SPR studies (Q9NYZ4 17-363 limits assumed): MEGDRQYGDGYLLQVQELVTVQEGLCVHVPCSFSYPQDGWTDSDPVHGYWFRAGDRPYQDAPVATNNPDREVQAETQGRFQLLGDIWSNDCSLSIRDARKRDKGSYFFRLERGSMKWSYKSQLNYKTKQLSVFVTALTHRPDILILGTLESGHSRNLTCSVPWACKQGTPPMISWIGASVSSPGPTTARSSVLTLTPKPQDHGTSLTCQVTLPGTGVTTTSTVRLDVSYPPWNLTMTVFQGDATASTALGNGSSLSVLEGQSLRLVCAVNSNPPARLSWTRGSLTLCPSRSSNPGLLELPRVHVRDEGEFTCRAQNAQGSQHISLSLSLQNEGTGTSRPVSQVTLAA

| Kd | binding result | Binder |
| --- | --- | --- |
| 152000 nM | – | B1 |
| 326 nM | – | B2 |
| – | no binding | B3 |
| 32.7 nM | – | B4 |
| 10.1 nM | – | B5 |
| 46200 nM | – | B6 |
| 1.21 nM | – | B7 |
| 50.6 nM | – | B8 |
| 8080 nM | – | B9 |
| 31.2 nM | – | B10 |
| 159 nM | – | B11 |
| 1.61 nM | – | B12 |
| 88.8 nM | – | B13 |
| 2.02 nM | – | B14 |
| 3.49 nM | – | B15 |
| 65.4 nM | – | B16 |
| 160000 nM | – | B17 |
| 242 nM | – | B18 |
| 4.68 nM | – | B19 |
| 2.57 nM | – | B21 |
| 10 nM | – | B22 |
| 2.5 nM | – | B20 |
